Columns and labels:
[1] = Thermal stability, melting temperature (Tm) by differential scanning fluorimetry; format: physicochemical; conditions: compared to ADA1
Description: Proteins differ in their degrees of thermal stability (or thermostability). In particular, proteins with biological activities, such as enzymes, can have different optimal temperatures. Thermostability, the quality of a protein to resist irreversible change in its chemical or physical structure at a relatively high temperature, can be indicative of overall stability of a protein. Increased temperature usually induces protein unfolding, and disruption of secondary, tertiary and quaternary structure of proteins, leading to destabilization of protein. Thermostability of a protein, such as any ADA2 polypeptide provided herein, can be determined by measuring the changes in enzymatic activity and/or other physical properties, before and after incubation in relatively high or low temperatures.
The stability of a protein can be determined by measuring the activity of the protein as a function of time. The melting temperature (Tm) of the protein can be used as a marker of solution stability and in vivo stability for proteins. The unfolding temperature of a particular protein refers to that temperature at which the protein loses its secondary structure and typically, its activity and can be determined using methods known to those of skill in the art and described herein, such as differential scanning calorimetry […]. […] In other examples, the thermal stability can be measured biochemically. […]

[2] = system: NK/T cells; test: rHuADA2 rescue of adenosine-mediated inhibition of NK/T cell proliferation; format: cell-based, human
Method: A mixture of NK and T cells (NK/T) were prepared from healthy donor's peripheral blood mononuclear cells (PBMC). Briefly, 10×10^7 HumanPBMCs were cultured for 6-7 days in Stem cell growth medium (SCGM; Order No. 20802-0500, CellGenix, Freiburg, Germany) with 5% human serum from donors with blood type AB (human AB serum; Cat. No. 35-060-C1, Mediatech, Mannassas, Va.) in the presence of 20 ng/mL anti-CD3 eBioscience, San Diego, Calif.; Cat. No. 16-0039) and 500 IU/mL recombinant human interleukin 2 (rhIL-2; Cat. No. 200-02, PeproTech, Rocky Hill, N.J.). The cells were then cultured for an additional 2-3 weeks in SCGM in the presence of 500 IU/mL rhIL-2. NK/T cells cultured for 2-4 weeks were used in experiments.
NK/T cells (10,000 cells/well) were plated in 96 well white plates with clear bottoms in a total volume of 180 μL. The cells were treated with 20 μL rHuADA2 at concentrations resulting from 3-fold dilution series, to give a final rHuADA2 concentration of 100 nM, 30 nM, 10 nM, 3 nM, 1 nM, 0.3 nM, 0.1 nM, and 0.03 nm, and then each well also was treated with 20 μL of adenosine at 1 mM. After treatment, the NK/T cells were cultured, processed and luminescence measured as described above. The mean cell survival (%) was determined by comparison of the measured luminescence to control cells not treated with adenosine or rHuADA2.
Experiments also were performed to assess the effect of rHuADA2 to reverse adenosine-mediated inhibition of NK/T cell proliferation at various concentrations of adenosine. The experiments were conducted in a similar manner as described above, with final adenosine concentration of 1 mM, 100, 50, or 25 μM and final rHuADA2 concentration of 100 nM, 30 nM, 10 nM, 3 nM, 1 nM, 0.3 nM, 0.1 nM, and 0.03 nM.

B1: ADA2: wild-type human adenosine deaminase 2, mature form SEQ ID NO:5, homodimer (protein, listed as Homo sapiens)
chain: IDETRAHLLLKEKMMRLGGRLVLNTKEELANERLMTLKIAEMKEAMRTLIFPPSMHFFQAKHLIERSQVFNILRMMPKGAALHLHDIGIVTMDWLVRNVTYRPHCHICFTPRGIMQFRFAHPTPRPSEKCSKWILLEDYRKRVQNVTEFDDSLLRNFTLVTQHPEVIYTNQNVVWSKFETIFFTISGLIHYAPVFRDYVFRSMQEFYEDNVLYMEIRARLLPVYELSGEHHDEEWSVKTYQEVAQKFVETHPEFIGIKIIYSDHRSKDVAVIAESIRMAMGLRIKFPTVVAGFDLVGHEDTGHSLHDYKEALMIPAKDGVKLPYFFHAGETDWQGTSIDRNILDALMLNTTRIGHGFALSKHPAVRTYSWKKDIPIEVCPISNQVLKLVSDLRNHPVATLMATGHPMVISSDDPAMFGAKGLSYDFYEVFMGIGGMKADLRTLKQLAMNSIKYSTLLESEKNTFMEIWKKRWDKFIADVATK
modifications: ADA2 mature protein
thermal stability [1]: higher thermal stability | MS % (mean survival) ([2]; ADA2 0.03 nM, 25 μM Adenosine): 81.7% | MS % (mean survival) ([2]; ADA2 0.03 nM, 50 μM Adenosine): 71.2% | MS % (mean survival) ([2]; ADA2 0.03 nM, 100 μM Adenosine): 45.9% | MS % (mean survival) ([2]; ADA2 0.03 nM, 1 mM Adenosine): 15.6% | MS % (mean survival) ([2]; ADA2 0.1 nM, 25 μM Adenosine): 89.6% | MS % (mean survival) ([2]; ADA2 0.1 nM, 50 μM Adenosine): 76.6% | MS % (mean survival) ([2]; ADA2 0.1 nM, 100 μM Adenosine): 43.8% | MS % (mean survival) ([2]; ADA2 0.1 nM, 1 mM Adenosine): 16.3% | MS % (mean survival) ([2]; ADA2 0.3 nM, 25 μM Adenosine): 90.5% | MS % (mean survival) ([2]; ADA2 0.3 nM, 50 μM Adenosine): 64.8% | MS % (mean survival) ([2]; ADA2 0.3 nM, 100 μM Adenosine): 57.8% | MS % (mean survival) ([2]; ADA2 0.3 nM, 1 mM Adenosine): 18.3% | MS % (mean survival) ([2]; ADA2 1 nM, 25 μM Adenosine): 99.3% | MS % (mean survival) ([2]; ADA2 1 nM, 50 μM Adenosine): 80.2% | MS % (mean survival) ([2]; ADA2 1 nM, 100 μM Adenosine): 71.7% | MS % (mean survival) ([2]; ADA2 1 nM, 1 mM Adenosine): 22.6% | MS % (mean survival) ([2]; ADA2 3 nM, 25 μM Adenosine): 107.4% | MS % (mean survival) ([2]; ADA2 3 nM, 50 μM Adenosine): 94% | MS % (mean survival) ([2]; ADA2 3 nM, 100 μM Adenosine): 91.6% | MS % (mean survival) ([2]; ADA2 3 nM, 1 mM Adenosine): 41.4% | MS % (mean survival) ([2]; ADA2 10 nM, 25 μM Adenosine): 121.2% | MS % (mean survival) ([2]; ADA2 10 nM, 50 μM Adenosine): 105.9% | MS % (mean survival) ([2]; ADA2 10 nM, 100 μM Adenosine): 108.3% | MS % (mean survival) ([2]; ADA2 10 nM, 1 mM Adenosine): 67.1% | MS % (mean survival) ([2]; ADA2 30 nM, 25 μM Adenosine): 117.2% | MS % (mean survival) ([2]; ADA2 30 nM, 50 μM Adenosine): 114.7% | MS % (mean survival) ([2]; ADA2 30 nM, 100 μM Adenosine): 114.4% | MS % (mean survival) ([2]; ADA2 30 nM, 1 mM Adenosine): 79.1% | MS % (mean survival) ([2]; ADA2 100 nM, 25 μM Adenosine): 120.6% | MS % (mean survival) ([2]; ADA2 100 nM, 50 μM Adenosine): 116.9% | MS % (mean survival) ([2]; ADA2 100 nM, 100 μM Adenosine): 109% | MS % (mean survival) ([2]; ADA2 100 nM, 1 mM Adenosine): 96.3%

From patent publication US9969998B2, “Compositions of adenosine deaminase-2 (ADA2), variants thereof and methods of using same” (Halozyme, Inc., priority 2014, dated 2018)
